From patent EP4261278A1

Target: NDM-type carbapenemase (New Delhi metallo-β-lactamase), recombinant
Experiment: indirect ELISA, plate coated with 0.2 µg/mL NDM carbapenemase, goat anti-mouse secondary antibody, TMB
Settings: scale: reciprocal dilution

B1: anti-NDM-type carbapenemase mouse mAb 12HE11 (antibody, V domains shown)
VH: VQLHESGPELVKPGASVKLSCTASGYTLSDYHVKWVKQNHGQSLEWIGDIRPQNGDIVYNQKFKDKATLTVDKSSTTAYIRLSSLTSEDSAVYYCAFHYYAYGKWFPYWGQGTLVTVS
VL: DILMTQSPSSLTVTAGEKVTLSCRSSQSLFNSGNQKNYLTWHQQKPGQSPKLLIYWAVTRESGVPDRFTGSGSGTDFTLTISSVQAEDLAIYYCQNDYSYPLTFGAGTKLELK
- titer: > 1.28e+06

B2: anti-NDM-type carbapenemase mouse mAb 1GH10 (antibody, V domains shown)
VH: SRDYGLRVELVRPGTSVKVSCKASGYAFSNYLIEWVKQRPGQGLEWIGVINPGRDDTNYNEKFKGKATLTADKSSSTAYMHLSSLTSDDSAVYFCARFPSILRYDSGSFSYFGLDCWGQGTSVTVSS
VL: DVLMTQTPLSLSVSLGDQASISCRSSQSIVHSDGNTYLDWYLQKPGQSPKLLIYKVSNRFSGVPDRFSGSGSGTDFTLKITRVEAEDLGVYYCFQISRVPFTFGSGTKLEIKR
- titer: > 1.28e+06
